Test results as given in publication PMC8080410 (Bioactive Materials, 2021).

B2: E-OVA_(323-336) (peptide)
peptide: EWEAEAEAEWEGGGQAVHAAHAEINEAGR

Tests used:
E-OVA_(323-336) = target: B2; assay: TEM + rheology + circular dichroism
TEM + DLS = target: the molecule itself; assay: TEM + DLS

B1: K-OVA_(257-264) (peptide)
peptide: KWKAKAKAKWKGGGSIINFEKL
- binding result (E-OVA_(323-336)): binds
- binding result (TEM + DLS): binds

Binder: B2
- binding result (TEM + DLS): binds
